Reference: paper PMC9278869

Biological target: Flag-ACKR3-RlucII (human) (UniProt P25106)
Settings: scale: log EC50

Flag-ACKR3-RlucII (human), sequence (P25106 whole entry): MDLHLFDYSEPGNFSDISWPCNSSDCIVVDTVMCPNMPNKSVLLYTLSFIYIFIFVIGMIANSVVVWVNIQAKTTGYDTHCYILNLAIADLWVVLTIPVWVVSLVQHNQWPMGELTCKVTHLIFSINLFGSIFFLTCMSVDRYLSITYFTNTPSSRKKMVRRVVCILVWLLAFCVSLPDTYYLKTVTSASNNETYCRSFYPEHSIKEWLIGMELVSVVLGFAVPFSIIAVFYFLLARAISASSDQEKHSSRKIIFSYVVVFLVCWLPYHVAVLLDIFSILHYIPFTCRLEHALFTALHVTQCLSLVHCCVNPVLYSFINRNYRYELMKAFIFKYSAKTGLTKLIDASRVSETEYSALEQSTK

- log EC50 of GFP10–β-arrestin 2 recruitment to ACKR3-RlucII (BRET) as a function of CXCL12WT, with 2 μM CID25: -8.89
- log EC50 of GFP10–β-arrestin 2 recruitment to ACKR3-RlucII (BRET) as a function of CXCL12WT, without CID25: -8.87
Substance: wild-type CXCL12 (CXCL12WT) (from UniProt P48061 22-93) (ligand)
